The values that follow come from patent US20240350600A1.

This experiment concerns the target cell-bound IgE on basophils of peanut-allergic subjects. The experiment can be described thus: cell-based or functional assay.

B1: Ara h 1 combined epitope peptide (409-427) (peptide)
peptide: NNFGKLFEVKPDKKNPQLQ
As for B1, the percentage of activated basophils, one subject turned out to be 8%.
